# Numbering of substitutions follows the chain as printed. Names and notes keep the numbering of the source.
# B1: XPA23 Fab, heavy chain F35W (Fab, V domains shown)
# VH: EVQLLESGGGLVQPGGSLRLSCAASGFTFSKYFMWWVRQAPGKGLEWVSVISPSGGMTRYADSVKGRFTISRDNSKNTLYLQMNSLRAEDTAVYYCARVGYGGNSDYWGQGTLVTVSS
# VL: DIQMTQSPSSVSASVGDRLTIICRASQDINRWLAWYQQTPGNAPKLLIHSATSLQSGVPSRFSGSGSGTDFTLTINSLQPEDFATYYCQQADSFPLTFGGGTKVEIK
# B2: XPA23 Fab, heavy chain G102Q (Fab, V domains shown)
# VH: B1 VH with W35F, G102Q
# VL: B1 VL
# B3: XPA23 Fab, heavy chain G56K (Fab, V domains shown)
# VH: B1 VH with W35F, G56K
# VL: B1 VL
# B4: XPA23 Fab, heavy chain G56H (Fab, V domains shown)
# VH: B1 VH with W35F, G56H
# VL: B1 VL
# B5: XPA23 Fab, heavy chain G103K (Fab, V domains shown)
# VH: B1 VH with W35F, G103K
# VL: B1 VL
# B6: XPA23 Fab, heavy chain G102R (Fab, V domains shown)
# VH: B1 VH with W35F, G102R
# VL: B1 VL
# B7: XPA23 Fab, heavy chain G100W (Fab, V domains shown)
# VH: B1 VH with W35F, G100W
# VL: B1 VL
# B8: XPA23 Fab, heavy chain G55D (Fab, V domains shown)
# VH: B1 VH with W35F, G55D
# VL: B1 VL
# B9: XPA23 Fab, heavy chain G56N (Fab, V domains shown)
# VH: B1 VH with W35F, G56N
# VL: B1 VL
# B10: XPA23 Fab, heavy chain G103R (Fab, V domains shown)
# VH: B1 VH with W35F, G103R
# VL: B1 VL
# B11: XPA23 Fab, heavy chain G56Q (Fab, V domains shown)
# VH: B1 VH with W35F, G56Q
# VL: B1 VL
# B12: XPA23 Fab, heavy chain G56Y (Fab, V domains shown)
# VH: B1 VH with W35F, G56Y
# VL: B1 VL
# B13: XPA23 Fab, heavy chain G102W (Fab, V domains shown)
# VH: B1 VH with W35F, G102W
# VL: B1 VL
# B14: XPA23 Fab, heavy chain G100D (Fab, V domains shown)
# VH: B1 VH with W35F, G100D
# VL: B1 VL
# B15: XPA23 Fab, heavy chain G100R (Fab, V domains shown)
# VH: B1 VH with W35F, G100R
# VL: B1 VL
# B16: XPA23 Fab, heavy chain G56W (Fab, V domains shown)
# VH: B1 VH with W35F, G56W
# VL: B1 VL
# B17: XPA23 Fab, heavy chain G55R (Fab, V domains shown)
# VH: B1 VH with W35F, G55R
# VL: B1 VL
# B18: XPA23 Fab, heavy chain G102Y (Fab, V domains shown)
# VH: B1 VH with W35F, G102Y
# VL: B1 VL
# B19: XPA23 Fab, heavy chain G102E (Fab, V domains shown)
# VH: B1 VH with W35F, G102E
# VL: B1 VL
# B20: XPA23 Fab, heavy chain F35Y (Fab, V domains shown)
# VH: B1 VH with W35Y
# VL: B1 VL
# B21: XPA23 Fab, heavy chain G100K (Fab, V domains shown)
# VH: B1 VH with W35F, G100K
# VL: B1 VL
# B22: XPA23 Fab, heavy chain G103D (Fab, V domains shown)
# VH: B1 VH with W35F, G103D
# VL: B1 VL
# B23: XPA23 Fab, heavy chain G56E (Fab, V domains shown)
# VH: B1 VH with W35F, G56E
# VL: B1 VL
# B24: XPA23 Fab, heavy chain G55Q (Fab, V domains shown)
# VH: B1 VH with W35F, G55Q
# VL: B1 VL
# B25: XPA23 Fab, heavy chain G103F (Fab, V domains shown)
# VH: B1 VH with W35F, G103F
# VL: B1 VL
# B26: XPA23 Fab, heavy chain G55E (Fab, V domains shown)
# VH: B1 VH with W35F, G55E
# VL: B1 VL
# B27: XPA23 Fab, heavy chain G100F (Fab, V domains shown)
# VH: B1 VH with W35F, G100F
# VL: B1 VL
# B28: XPA23 Fab, heavy chain G55N (Fab, V domains shown)
# VH: B1 VH with W35F, G55N
# VL: B1 VL
# B29: XPA23 Fab, heavy chain G56D (Fab, V domains shown)
# VH: B1 VH with W35F, G56D
# VL: B1 VL
# B30: XPA23 Fab, heavy chain G100H (Fab, V domains shown)
# VH: B1 VH with W35F, G100H
# VL: B1 VL
# B31: XPA23 Fab, heavy chain G100Q (Fab, V domains shown)
# VH: B1 VH with W35F, G100Q
# VL: B1 VL
# B32: XPA23 Fab, heavy chain G102N (Fab, V domains shown)
# VH: B1 VH with W35F, G102N
# VL: B1 VL
# B33: XPA23 Fab, heavy chain G103E (Fab, V domains shown)
# VH: B1 VH with W35F, G103E
# VL: B1 VL
# B34: XPA23 Fab, heavy chain G56R (Fab, V domains shown)
# VH: B1 VH with W35F, G56R
# VL: B1 VL
# B35: XPA23 Fab, heavy chain G100Y (Fab, V domains shown)
# VH: B1 VH with W35F, G100Y
# VL: B1 VL
# B36: XPA23 Fab, heavy chain G102H (Fab, V domains shown)
# VH: B1 VH with W35F, G102H
# VL: B1 VL
# B37: XPA23 Fab, heavy chain G56F (Fab, V domains shown)
# VH: B1 VH with W35F, G56F
# VL: B1 VL
# B38: XPA23 Fab, heavy chain G103Q (Fab, V domains shown)
# VH: B1 VH with W35F, G103Q
# VL: B1 VL
# B39: XPA23 Fab, heavy chain G55Y (Fab, V domains shown)
# VH: B1 VH with W35F, G55Y
# VL: B1 VL
# B40: XPA23 Fab, heavy chain G55S (Fab, V domains shown)
# VH: B1 VH with W35F, G55S
# VL: B1 VL
# B41: XPA23 Fab, heavy chain G55K (Fab, V domains shown)
# VH: B1 VH with W35F, G55K
# VL: B1 VL
# B42: XPA23 Fab, heavy chain G100S (Fab, V domains shown)
# VH: B1 VH with W35F, G100S
# VL: B1 VL
# B43: XPA23 Fab, heavy chain G102K (Fab, V domains shown)
# VH: B1 VH with W35F, G102K
# VL: B1 VL
# Target: T1, IL-1beta (UniProt P01584 117-269)
# T1 construct: also called IL-1β
# Experiment: Biacore
Binder,binding result,fold difference in affinity vs parental
B1,no binding,–
B2,no binding,–
B3,–,2.05 fold
B4,–,0.82 fold
B5,no binding,–
B6,no binding,–
B7,–,0.05 fold
B8,no binding,–
B9,–,1.06 fold
B10,no binding,–
B11,–,1.31 fold
B12,–,1.27 fold
B13,no binding,–
B14,no binding,–
B15,no binding,–
B16,–,1.51 fold
B17,–,0.95 fold
B18,no binding,–
B19,no binding,–
B20,–,0.85 fold
B21,no binding,–
B22,no binding,–

Binder,binding result,fold difference in affinity vs parental
B23,–,1.21 fold
B24,–,0.9 fold
B25,no binding,–
B26,–,0.11 fold
B27,no binding,–
B28,–,0.1 fold
B29,–,0.05 fold
B30,–,0.06 fold
B31,no binding,–
B32,–,1.17 fold
B33,no binding,–
B34,–,2.11 fold
B35,–,0.09 fold
B36,no binding,–
B37,–,1.41 fold
B38,no binding,–
B39,–,0.08 fold
B40,–,1.02 fold
B41,–,0.11 fold
B42,–,2.8 fold
B43,no binding,–
